Measured values taken from patent US20230295597.
Substitutions are numbered along the chain they refer to.

What was measured:
[1] = biological target: T1, native full length human ADAMTS-13 (wild type)
T1 chain: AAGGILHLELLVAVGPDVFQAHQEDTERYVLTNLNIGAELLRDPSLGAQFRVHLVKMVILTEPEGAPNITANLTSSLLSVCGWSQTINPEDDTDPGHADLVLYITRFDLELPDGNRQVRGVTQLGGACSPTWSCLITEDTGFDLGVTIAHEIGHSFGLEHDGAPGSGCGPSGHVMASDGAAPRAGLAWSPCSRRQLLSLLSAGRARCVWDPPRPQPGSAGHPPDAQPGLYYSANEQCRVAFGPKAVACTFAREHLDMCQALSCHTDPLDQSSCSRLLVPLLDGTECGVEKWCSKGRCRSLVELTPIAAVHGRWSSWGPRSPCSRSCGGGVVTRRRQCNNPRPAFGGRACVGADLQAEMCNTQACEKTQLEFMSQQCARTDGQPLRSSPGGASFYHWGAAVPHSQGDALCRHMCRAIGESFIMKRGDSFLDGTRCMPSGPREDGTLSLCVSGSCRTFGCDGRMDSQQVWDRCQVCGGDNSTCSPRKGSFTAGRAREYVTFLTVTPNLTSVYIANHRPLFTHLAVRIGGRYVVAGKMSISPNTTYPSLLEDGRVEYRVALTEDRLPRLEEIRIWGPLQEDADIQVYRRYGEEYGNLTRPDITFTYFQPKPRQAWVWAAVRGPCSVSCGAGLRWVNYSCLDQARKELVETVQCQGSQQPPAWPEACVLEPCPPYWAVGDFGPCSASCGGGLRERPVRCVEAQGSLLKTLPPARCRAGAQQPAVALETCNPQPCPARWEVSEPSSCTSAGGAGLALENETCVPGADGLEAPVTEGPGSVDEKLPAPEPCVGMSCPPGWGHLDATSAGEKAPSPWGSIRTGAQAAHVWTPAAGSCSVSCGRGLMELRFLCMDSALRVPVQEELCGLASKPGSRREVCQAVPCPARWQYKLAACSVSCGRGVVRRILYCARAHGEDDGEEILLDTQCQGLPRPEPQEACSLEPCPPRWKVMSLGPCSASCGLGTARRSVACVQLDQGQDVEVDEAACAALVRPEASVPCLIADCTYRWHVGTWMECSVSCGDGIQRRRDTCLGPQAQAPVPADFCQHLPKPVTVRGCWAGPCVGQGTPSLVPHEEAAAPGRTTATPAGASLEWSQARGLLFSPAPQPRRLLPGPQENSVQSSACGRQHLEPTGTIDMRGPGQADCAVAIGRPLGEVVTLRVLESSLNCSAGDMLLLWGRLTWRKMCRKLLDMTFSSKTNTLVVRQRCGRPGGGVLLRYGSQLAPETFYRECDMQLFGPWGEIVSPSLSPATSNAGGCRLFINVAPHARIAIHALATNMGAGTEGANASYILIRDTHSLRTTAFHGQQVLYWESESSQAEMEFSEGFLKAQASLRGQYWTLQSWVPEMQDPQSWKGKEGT

[2] = biological target: T2, trADAMTS-13^R312K (truncated ADAMTS-13 mutant, Arg312 to Lys)
T2 chain: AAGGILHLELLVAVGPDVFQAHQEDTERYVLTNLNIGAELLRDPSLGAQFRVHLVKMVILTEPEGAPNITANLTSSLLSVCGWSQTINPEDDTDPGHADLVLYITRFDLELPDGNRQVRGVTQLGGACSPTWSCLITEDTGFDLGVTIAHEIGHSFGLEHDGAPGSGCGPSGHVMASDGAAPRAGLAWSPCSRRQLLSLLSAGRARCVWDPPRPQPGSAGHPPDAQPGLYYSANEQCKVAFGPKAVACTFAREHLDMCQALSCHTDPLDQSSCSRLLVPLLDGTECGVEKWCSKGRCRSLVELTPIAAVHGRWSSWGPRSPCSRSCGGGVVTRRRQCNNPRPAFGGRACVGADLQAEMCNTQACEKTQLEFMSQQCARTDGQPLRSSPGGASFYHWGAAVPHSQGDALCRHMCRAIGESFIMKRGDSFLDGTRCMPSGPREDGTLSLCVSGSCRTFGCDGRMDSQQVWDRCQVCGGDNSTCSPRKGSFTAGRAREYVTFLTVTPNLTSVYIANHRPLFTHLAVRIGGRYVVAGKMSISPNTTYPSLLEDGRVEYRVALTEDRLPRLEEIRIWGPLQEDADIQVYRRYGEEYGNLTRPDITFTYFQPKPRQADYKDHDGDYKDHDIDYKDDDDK

[3] = biological target: T3, trADAMTS-13^V313A (truncated ADAMTS-13 mutant, Val313 to Ala)
T3 chain: T2 chain with K238R, V239A

B1: tissue plasminogen activator (tPA) (protein)
chain: SYQVICRDEKTQMIYQQHQSWLRPVLRSNRVEYCWCNSGRAQCHSVPVKSCSEPRCFNGGTCQQALYFSDFVCQCPEGFAGKCCEIGNSDCYFGNGSAYRGTHSLTESGASCLPWNSMILIGKVYTAQNPSAQALGLGKHNYCRNPDGDAKPWCHVLKNRRLTWEYCDVPSCSTCGLRQYSQPQFRIKGGLFADIASHPWQAAIFAKHRRSPGERFLCGGILISSCWILSAAHCFQERFPPHHLTVILGRTYRVVPGEEEQKFEVEKYIVHKEFDDDTYDNDIALLQLKSDSSRCAQESSVVRTVCLPPADLQLPDWTECELSGYGKHEALSPFYSERLKEAHVRLYPSSRCTSQHLLNRTVTDNMLCAGDTRSGGPQANLHDACQGDSGGPLVCLNDGRMTLVGIISWGLGCGQKDVPGVYTKVTNYLDWIRDNMRP
[1]
  ADAMTS-13 activity with or without preincubation with tPA (technozym kit): the activity of both trADAMTS-13 and ADAMTS-13 WT was reduced in the presence of tPA (FIG. 4B)
[2]
  cleavage by tPA (Western blot) and residual proteolytic activity on vWF over time: trADAMTS-13^R312K was resistant to cleavage by tPA under conditions where trADAMTS-13 was proteolyzed completely (FIG. 7A) and lost its catalytic activity (FIG. 7B)
  residual proteolytic activity on vWF after 6 hours with or without tPA: trADAMTS-13^R312K and trADAMTS-13^V313D variants were resistant to inactivation by tPA
[3]
  residual proteolytic activity on vWF after 6 hours with or without tPA: tPA inhibited the proteolytic activity of trADAMTS-13^R312A and trADAMTS-13^V313A variants on vWF (FIG. 8)
